Biological target: α-synuclein (α-syn) 1-140 (UniProt P37840)
Experiment: WT-PFF-seeded ThT fibrillation kinetics, NS-TEM
Conditions: reference: unmodified WT monomer plus WT PFF; sites S87

- binding against the reference: weaker
Substance: α-synuclein (α-syn) 1-140 (from UniProt P37840) pS87 monomer plus WT PFF

— article PMC10973503
